Test results published in IntAct's records for PubMed 22854040.

B1: Ras-related protein Rab-8A (Homo sapiens), P61006 (parent)
chain: MAKTYDYLFKLLLIGDSGVGKTCVLFRFSEDAFNSTFISTIGIDFKIRTIELDGKRIKLQIWDTAGQERFRTITTAYYRGAMGIMLVYDITNEKSFDNIRNWIRNIEEHASADVEKMILGNKCDVNDKRQVSKERGEKLALDYGIKFMETSAKANINVENAFFTLARDIKAKMDKKLEGNSPQGSNQGVKITPDQQKRSSFFRCVLL

Variants of: B1
Settings: with tfr1_human TFRC

| effect of a mutation on the interaction | Variant |
| --- | --- |
| decreasing interaction | T22N |
